The target of experiment [1] is T1, biotinylated recombinant human LAG-3 (human, UniProt P18627 23-450, limits assumed, biotinylated).
T1 construct: also called soluble recombinant human LAG-3 protein
T1 sequence (looked up): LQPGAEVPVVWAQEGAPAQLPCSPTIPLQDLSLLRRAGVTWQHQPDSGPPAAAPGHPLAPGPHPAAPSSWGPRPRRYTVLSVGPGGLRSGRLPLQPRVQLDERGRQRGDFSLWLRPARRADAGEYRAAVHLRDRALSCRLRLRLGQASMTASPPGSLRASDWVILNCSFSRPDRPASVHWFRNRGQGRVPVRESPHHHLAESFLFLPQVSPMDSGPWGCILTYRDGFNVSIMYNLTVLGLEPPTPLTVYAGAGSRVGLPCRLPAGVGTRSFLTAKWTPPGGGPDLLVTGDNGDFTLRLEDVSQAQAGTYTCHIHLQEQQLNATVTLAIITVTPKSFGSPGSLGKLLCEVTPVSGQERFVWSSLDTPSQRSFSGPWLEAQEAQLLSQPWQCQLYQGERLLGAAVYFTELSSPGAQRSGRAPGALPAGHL
The experiment in a line: ELISA, antibody coated on the plate, biotinylated recombinant human LAG-3 titrated (x axis, nM), streptavidin detection, absorbance 450-570 nm. In general terms: ELISA stands for enzyme-linked immunosorbent assay.

Experiment [2] concerns the target T2, human LAG-3 (Bio-Layer Interferometry; construct not stated) (human, UniProt P18627 23-450, limits assumed).
T2 sequence (looked up): T1 sequence (looked up)
Nature of the experiment: Bio-Layer Interferometry. Background: BLI is a label-free optical method that tracks binding on a fibre tip over time.

Experiment [3] deals with T3, human LAG-3 coupled to phycoerythrin (human, UniProt P18627 23-450, limits assumed, coupled to phycoerythrin).
T3 construct: also called Labelled LAG-3
T3 sequence (looked up): T1 sequence (looked up)
The experiment in a line: blocking assay, flow cytometry: phycoerythrin-coupled human LAG-3 pre-incubated with Fab, then binding to MHC class II on Daudi cells.

Experiment [4] deals with T4, mouse LAG-3 coupled to human Fc (mouse, UniProt Q61790 24-442, limits assumed).
T4 construct: also called murine LAG-3; Fc-coupled murine LAG-3; not shown: human Fc
T4 sequence (looked up): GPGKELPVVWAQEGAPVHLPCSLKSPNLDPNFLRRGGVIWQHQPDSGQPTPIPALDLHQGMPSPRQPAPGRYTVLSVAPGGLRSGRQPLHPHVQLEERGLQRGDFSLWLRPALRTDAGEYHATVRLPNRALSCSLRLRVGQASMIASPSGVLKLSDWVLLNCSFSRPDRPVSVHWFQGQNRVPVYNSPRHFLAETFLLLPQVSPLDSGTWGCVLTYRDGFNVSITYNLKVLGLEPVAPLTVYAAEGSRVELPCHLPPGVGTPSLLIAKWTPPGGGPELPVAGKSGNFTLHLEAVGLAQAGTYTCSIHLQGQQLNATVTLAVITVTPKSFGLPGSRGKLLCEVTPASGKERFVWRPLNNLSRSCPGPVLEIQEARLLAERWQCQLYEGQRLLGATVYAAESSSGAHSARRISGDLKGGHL
The experiment in a line: ELISA, plate coated with mouse LAG-3-Fc, crude periplasmic Fab extract, anti-human Fab-HRP, absorbance 450-670 nm. The procedure: After extensive washes in PBS Tween-20, crude periplasmic extracts from the induction were transferred into the ELISA wells in the presence of 7% milk in PBS. After 90 minutes at room temperature under agitation and extensive washes, a goat anti-human Fab antibody coupled to HRP was added. One hour la ter, plates were washed and TMB substrate was added. The reaction was stopped with 1M HCl and optical density was measured at 450 nm with a reference at 670 nm. Antibodies giving an absorbance >0.1 were selected as positive. A first clonality screening was performed by DNA fingerprinting; clonality was then confirmed by sequencing.

Experiment [5] concerns the target T5, Human LAG-3 coupled to human Fc (human, UniProt P18627 23-450, limits assumed).
T5 construct: also called LAG-3-Fc; human LAG-3-Fc; not shown: human Fc
T5 sequence (looked up): T1 sequence (looked up)
The experiment in a line: SPR (ProteOn XPR 36), human LAG-3-Fc immobilised, A6 Fab as analyte. The procedure: (§1) Association and dissociation rates were measured with a ProteOn XPR 36 analyser (Biorad) and the affinity (KD) was calculated.

Experiment [6] addresses T3, human LAG-3 coupled to phycoerythrin. The experiment in a line: flow cytometry; inhibition of binding of PE-coupled human LAG-3 to MHC class II on Daudi cells. The procedure:
Daudi cells were plated in 96-well plates and fixed/permeabilised in Fix/Perm buffer in the presence of anti-CD16/CD32 antibody. Premixes were added onto the Daudi cells and incubated for 30 minutes at 4° C. The cells were then washed three times in Perm/Wash buffer, resuspended in PBS and analysed by flow cytometry.
In general terms: In flow cytometry, cells or beads pass a laser one at a time.

For experiment [7] the target is unchanged. The experiment in a line: blocking assay, flow cytometry: labelled LAG-3 pre-incubated with Fab, then binding to MHC class II on Daudi cells, mean fluorescence intensity.
Experiment [8] addresses T5, Human LAG-3 coupled to human Fc. The experiment in a line: SPR (ProteOn XPR 36), human LAG-3-Fc immobilised, A6 Fab as analyte at five concentrations (L1A1-L1A5). The procedure:
as §1

The target of experiment [9] is T4, mouse LAG-3 coupled to human Fc. The experiment in a line: ELISA, plate coated with mouse LAG-3 coupled to human Fc, Fab, absorbance 450-670 nm.

B1: anti-LAG-3 antibody clone G8 in IgG1 format (antibody, V domains shown)
VH: QVQLVQSGGGVVQPGRSLRLSCAASGFTFSSYAMHWVRQAPGKGLEWVAVISYDGSNKYYADSVKGRFTISRDNSKNTLYLQMNSLRAEDTAVYYCARDPDAANWGFLLYYGMDVWGQGTTVTVSS
VL: EIVLTQSPGTLSLSPGERATLSCTTSQSVSSTSLDWYQQKPGQAPRLLIYGASSRATGIPDRFSGSGSGTDFTLTISRLEPEDFAVYYCQQYGSSLLTFGGGTKVEIK
notes: IgG1 format; also called G8 IgG1
For B1, in [1], the “EC50 (read off the curve)” value is roughly 0.8 nM.

B2: anti-LAG-3 antibody clone G8 (format not stated) (antibody, V domains shown)
VH: B1 VH
VL: B1 VL
notes: also called antibody G8
For B2, in experiment [2], the affinity, expressed as Kd, was 0.7 nM.

B3: anti-LAG-3 antibody clone G8 Fab (Fab, V domains shown)
VH: B1 VH
VL: B1 VL
As to B3, the half-maximal inhibitory concentration (IC50) in experiment [3] was 12 nM. Moreover, the binding result in experiment [4] is “no binding”.

B4: anti-LAG-3 antibody clone C2 Fab (Fab, V domains shown)
VH: B1 VH
VL: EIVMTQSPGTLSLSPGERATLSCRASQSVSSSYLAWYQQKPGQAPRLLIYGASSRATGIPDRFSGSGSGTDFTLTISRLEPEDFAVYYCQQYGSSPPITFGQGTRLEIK
In turn, B4 had an IC50 in experiment [3] of 33 nM. The binding result in experiment [4] is given as “no binding”.

B5: anti-LAG-3 antibody clone G8 in IgG4 format (antibody, V domains shown)
VH: B1 VH
VL: B1 VL
notes: also called G8 IgG4
Turning to B5, the “EC50 (read off the curve)” value in experiment [1] was roughly 0.4 nM.

B6: anti-LAG-3 antibody clone A6 in IgG1 format (antibody, V domains shown)
VH: EVQLVQSGAEVKKPGSSVKVSCKASGYTFTSYYMHWVRQAPGQGLEWMGIINPSGGSTSYAQKFQGRVTMTRDTSTSTVYMELSSLRSEDTAVYYCAMPFGDFDYWGQGTLVTVSS
VL: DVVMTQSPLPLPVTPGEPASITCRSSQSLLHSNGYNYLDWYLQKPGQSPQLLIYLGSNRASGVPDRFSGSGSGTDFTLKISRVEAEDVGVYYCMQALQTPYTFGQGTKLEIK
notes: also called A6 IgG1
As to B6, in experiment [1], the “EC50 (read off the curve)” value is roughly 0.7 nM.

B7: anti-LAG-3 antibody clone A6 (format not stated) (antibody, V domains shown)
VH: B6 VH
VL: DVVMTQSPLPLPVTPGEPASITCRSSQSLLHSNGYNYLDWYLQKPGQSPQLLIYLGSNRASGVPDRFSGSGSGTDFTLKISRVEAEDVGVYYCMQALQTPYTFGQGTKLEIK
notes: also called antibody A6
B7 showed a Kd in experiment [2] of 1.25 nM.

B8: anti-LAG-3 antibody clone A6 Fab (Fab, V domains shown)
VH: B6 VH
VL: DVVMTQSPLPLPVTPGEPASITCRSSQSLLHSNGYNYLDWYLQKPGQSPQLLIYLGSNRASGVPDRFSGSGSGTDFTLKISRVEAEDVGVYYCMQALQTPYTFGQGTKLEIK
notes: Fab format, from a human phage display library; the constant domains of the Fab are not
In the case of B8, the IC50 in experiment [3] was 111 nM. Moreover, in experiment [5], the affinity, expressed as Kd, was 2.2 nM. Besides, in experiment [6], the IC50 was 62.2 nM. The “IC50 (read off the curve)” value in [7] was roughly 60 nM. In experiment [8], this molecule gave a Kd of 2.18 nM, a koff of 0.000456 s⁻¹ and a kon of 209000 M⁻¹ s⁻¹.

B9: anti-LAG-3 antibody clone A6 in IgG4 format (antibody, V domains shown)
VH: B6 VH
VL: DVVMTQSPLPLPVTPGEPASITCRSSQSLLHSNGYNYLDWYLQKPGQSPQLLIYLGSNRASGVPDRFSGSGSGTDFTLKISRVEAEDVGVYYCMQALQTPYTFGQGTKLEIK
notes: also called A6 IgG4
Turning to B9, the “EC50 (read off the curve)” value in experiment [1] is roughly 0.6 nM.

B10: anti-LAG-3 antibody clone 1G11 Fab (Fab, V domains shown)
VH: QLQLQESGGDVVQPGRSLRLSCAASGFTFSSYGMHWVRQAPGKGLEWVAVISYDGSNKYYADSVKGRFTISRDNSKNTLYLQMNSLRAEDTAVYYCARLPGWGAYAFDIWGQGTMVTVSS
VL: EIVLTQSPGTLSLSPGERATLSCRASQSVSSSFLAWYQQKPGQAPRLLIYGASSRATGIPDRFSGSGSGTDFTLTISRLEPEDFAVYYCQQYGPSITFGGGTKVEIK
As for B10, the binding result in [9] is reported as “binds”. In experiment [6], the IC50 was 378 nM.

B11: anti-LAG-3 antibody clone C12 Fab (Fab, V domains shown)
VH: QVQLVQSGAEVKKPGSSVKVSCKASGGTFSSYAISWVRQAPGQGLEWMGGIIPIFGTANYAQKFQGRVTITADESTSTAYMELSSLRSEDTAVYYCARALADFWSGYYYYYYMDVWGKGTTVTVSS
VL: DVVMTQSPLSLPVTPGEPASISCRSSQSLLHSDGYNYFDWYLQKPGQSPQLLIYLGSNRAAGVPDRFSGSGSGTDFTLKISRVEAEDVGVYYCMQGTHWPPTFGQGTKLEIK
In experiment [3], B11 yielded an IC50 of 18 nM. For the same molecule, the binding result in [4] is given as “binds”.

B12: anti-LAG-3 antibody clone F5 in IgG1 format (antibody, V domains shown)
VH: EVQLVQSGAEVKKPGASVKVSCKVSGYTLTELSMHWVRQTPGKGLEWMGGFDPEDGETIYAQKFQGRVTMTEDTSTDTAYMELSSLRSEDTAVYYCATTWFGELYYWGQGTLVTVSS
VL: ETTLTQSPGTLSLSPGERATLSCRASQSVSSGYLAWYQQKPGQAPRLLIYDASSRATGIPDRFSGSGSGADFTLTISRLQPEDFAVYYCQQYGSSRPGLTFGGGTRVEIK
notes: IgG1 format; also called F5-IgG1
As to B12, in experiment [1], the “EC50 (read off the curve)” value is roughly 5 nM.

B13: anti-LAG-3 antibody clone F5 in IgG4 format (antibody, V domains shown)
VH: B12 VH
VL: B12 VL
notes: also called F5 IgG4
On to B13, for which the “EC50 (read off the curve)” value in experiment [1] is roughly 3 nM.

B14: anti-LAG-3 antibody clone F5 (format not stated) (antibody, V domains shown)
VH: B12 VH
VL: B12 VL
notes: also called antibody F5
With B14, the Kd in experiment [2] turned out to be 1.21 nM.

B15: anti-LAG-3 antibody clone F5 Fab (Fab, V domains shown)
VH: B12 VH
VL: B12 VL
With B15, in experiment [3], the IC50 was 3 nM. Also, the binding result in experiment [4] is “no binding”.

Broadly, the EC50 (read off the curve) is the concentration at which the effect is half-maximal. Usually Kd stands for the equilibrium constant for the complex coming apart. Low values mean tighter binding, high ones weaker binding. The IC50 is the midpoint of a concentration-inhibition curve. A high value points to lower potency. The term koff denotes a measure of how fast the partners let go of each other. As usually defined, the kon is a measure of how fast the partners come together. High values mean fast association, low ones slow association.

Source of the values: patent publication US20190040136A1 (AGENCY FOR SCIENCE TECHNOLOGY AND RESEARCH, published 2019).
